From the RNAGym collection of RNA variant scans (doi:10.7554/elife.80360) come the findings set out here.

First the molecules themselves.
B1: Hairpin Ribozyme (parent)
chain: GUCCUCUUUCACGUGCGCGUGAAAGAGAGAAGUGAACCAGAGAAACACACGUUGUGGUAUAUUACCUGGUA

This series covers variants of B1. In words: self-cleavage, relative activity (ratio to wild type); higher = more cleavage; co-transcriptional.
With GUCCUCUUUCACGUGCGAGUGAAAGAGAGAAGUGAACCAAAGAAACACACGUUGUGGUAUAUUACCUGGUA [C18A G40A], the self-cleavage came to 0.305.
As to GUCCUCUUUCACGUGCGCGUGAAAGAGAGCAGUGAACCAUAGAAACACACGUUGUGGUAUAUUACCUGGUA [A30C G40U], the self-cleavage was determined as 0.0963.
As for GUCCUCUUUCACGUGCGCGUGAAAGAGAGAAUUGAACCAGGGAAACACACGUUGUGGUAUAUUACCUGGUA [G32U A41G], the self-cleavage was 0.0256.
To GUCCUCUUUCACGUGCGCGUGAAAGAGAGAAGUGAACCAGAGAAACCCACGUUUUGGUAUAUUACCUGGUA [A47C G54U] belongs 0.241; to GUCCUCUUUCACGUGCGCGUGAAUGAGAGAAGUGAACCAGAGAAACACACGUUCUGGUAUAUUACCUGGUA [A24U G54C], 0.423.
The value for GUCAUCUUUCACGUGCGCGUGAAAGAGAGAAGUGAACCAGAGAAACACACGUUGUGGUAGAUUACCUGGUA [C4A U60G] was 0.139; that for GUCCUCUUUCACGUGCGCGUGAAAAAGAGAAGUGAACCCGAGAAACACACGUUGUGGUAUAUUACCUGGUA [G25A A39C] was 0.374; that for GUCCUCUUUCACGUGCGCGUGAAAGAGAGAAGUGAACCAGAGAAACACACGUUGUGGUAAAUGACCUGGUA [U60A U63G] was 0.136.
For GUCCUCUUUCACGUACGCGUGAAAGAGAGAAGUGAACCAGAGAAACACACGUUGUGGUAUGUUACCUGGUA [G15A A61G], the self-cleavage stood at 0.18.
Turning to GUCCUCUUUCACGUGCGCGUGAAAGAGAGAAGUCAAUCAGAGAAACACACGUUGUGGUAUAUUACCUGGUA [G34C C37U], the self-cleavage stood at 1.34.
Regarding GUCCUCUUUCACGUGCGCGUGAAAGAGAGAAGUGAACCAGCGAAACACACGUUGUGGUAUAUAACCUGGUA [A41C U63A], the self-cleavage was determined as 0.108.
The value for GUCCUCUUUCACGUGCGGGUGAAAGAGAGAAGAGAACCAGAGAAACACACGUUGUGGUAUAUUACCUGGUA [C18G U33A] was 0.169.
To GUCCUCUUUGACGUGCGCGUGGAAGAGAGAAGUGAACCAGAGAAACACACGUUGUGGUAUAUUACCUGGUA [C10G A22G] belongs 0.649; to GUCCUCUUUCACGUGCUCGUGAAAGAGAGAAGUGAACCAGAGAAGCACACGUUGUGGUAUAUUACCUGGUA [G17U A45G], 0.0728.
Turning to GUCCUCUUUCACGUGCGCGUGAAAGAGAGAAGUGAACCCGAGAAACACACGUUGUGGUAUAUUACCUGUUA [A39C G69U], the self-cleavage is 0.147.
Consider GUCCUCUUUCACGUGCGCGUGAUAGAGAGAAGUGAACCAGAGAAACACACGUUGUGGUAUAUUACGUGGUA [A23U C66G], for which the self-cleavage amounted to 0.222.
The value for GUCCUCUUCCACGUGCGCGUGAAAGAGAGAAGUGAACGAGAGAAACACACGUUGUGGUAUAUUACCUGGUA [U9C C38G] was 0.145.
To GUCCUCUUUCACGUGCGCGUGAAAGAGAGAAGUGAACCAGAGUAACACACGUUGUGGUGUAUUACCUGGUA [A43U A59G] belongs 0.166; to GUCCUCUUGCACGUGCGCGUGAAAGAGAGAAGUGAACCGGAGAAACACACGUUGUGGUAUAUUACCUGGUA [U9G A39G], 0.206; to GUCCUCUUGCACGUGCGCGUGAAAGAGAGAAGUGAACCUGAGAAACACACGUUGUGGUAUAUUACCUGGUA [U9G A39U], 0.158.
The value for GUCCUCUUUCACGUGCGCGUGAAAGAGAGAAGUGAACCAGAGAGACACACGUUGUGGUAUAAUACCUGGUA [A44G U62A] was 0.0675; that for GUCCUCUUUCAAGUGCGCGUGAAAGAGAGAACUGAACCAGAGAAACACACGUUGUGGUAUAUUACCUGGUA [C12A G32C] was 0.0893; that for GUCCUCUUUCACGUGCGCGUGAAACAGAGAAGUGAACCAGAGAAACACACGUUGUGGUAUCUUACCUGGUA [G25C A61C] was 0.0596.
GUCCUCUUUCACGUGCGCGUGAAAGAGAGAAGUGAACCAGAGAAACACACGUUGUGGUAUAUCACCUGAUA [U63C G69A]: the self-cleavage was 0.216.
Take GUCCUCUUUCACGUGGGCGUGAAAGAGAGAAGUCAACCAGAGAAACACACGUUGUGGUAUAUUACCUGGUA [C16G G34C]: the self-cleavage worked out at 1.22.
The value for GUCCUCUUUCACGUACGCGUGAAAGAGAGAAGUAAACCAGAGAAACACACGUUGUGGUAUAUUACCUGGUA [G15A G34A] was 1.11; that for GUCCUCUUUCACGUGCGCGUGAAAGAGAGAAGUGAACCAGAGAAACACACGUUGUGGUAUAUGACCCGGUA [U63G U67C] was 0.149.
The value for GUCCUCUUUCACGUGCGCGUUAAAGAGAGAAGUGAACCAGAGAAACACACGUUGUGGAAUAUUACCUGGUA [G21U U58A] was 0.493; that for GUCCCCUUUCACGUGCGCGUGAAAGAGAGACGUGAACCAGAGAAACACACGUUGUGGUAUAUUACCUGGUA [U5C A31C] was 0.0543.
To GUCCUCUUUCAAGUGCGCGUGAAAGAGAGAAGUGAACCAGAGAAACACACGUGGUGGUAUAUUACCUGGUA [C12A U53G] belongs 0.587; to GUCCUCUUUCACGUGCGCGUGAAAGAGAGAAGUGAACCAGGGAAACACACGCUGUGGUAUAUUACCUGGUA [A41G U52C], 0.827.
On to GUCCUCUUUCACGUGCGCGUGAAAGAGAGAAGUGAACCAGAGAAACACCCGUUGUCGUAUAUUACCUGGUA [A49C G56C], for which the self-cleavage came out at 0.12.
The value for GUCCUCUUUCACGUGCGCGUGAAAGAGAGAAGUGAACCAGAGAAACACACGUUGUGGUAUAUUAACGGGUA [C65A U67G] was 0.197.
The value for GGCCUCUUUCACGUGCGCGUGAAAGAGAGAAGUGAACCAGAGAAACACACGUUGUGGUAUAUUACAUGGUA [U2G C66A] was 0.147; that for GUCCUCUUUCACGUGCGCGUGAAAGAGAGAAGUGAACCAGAGAAAAACACGUUGUGGUAUAUUACCUGGUG [C46A A71G] was 0.24.
Turning to GUCCUCCUUCACGUGCUCGUGAAAGAGAGAAGUGAACCAGAGAAACACACGUUGUGGUAUAUUACCUGGUA [U7C G17U], the self-cleavage is 0.892.
GUCCUCUUUCACGUUCGCGUUAAAGAGAGAAGUGAACCAGAGAAACACACGUUGUGGUAUAUUACCUGGUA [G15U G21U]: the self-cleavage is 0.868.
The value for GUCCUCUUUCACGGGCGCGUGAAAGGGAGAAGUGAACCAGAGAAACACACGUUGUGGUAUAUUACCUGGUA [U14G A26G] was 0.781.
